Measurements taken from US20160137730A1 (Novartis, published 2016).

Tests used:
[1] = molecular target: T1, recombinant human N-cadherin ECD (human, UniProt P19022 160-724); assay: ELISA, ECD coated on plate, Fab-containing E. coli lysate
T1 construct: extracellular domain; also called N-cadherin (CDH2)
T1 sequence (looked up): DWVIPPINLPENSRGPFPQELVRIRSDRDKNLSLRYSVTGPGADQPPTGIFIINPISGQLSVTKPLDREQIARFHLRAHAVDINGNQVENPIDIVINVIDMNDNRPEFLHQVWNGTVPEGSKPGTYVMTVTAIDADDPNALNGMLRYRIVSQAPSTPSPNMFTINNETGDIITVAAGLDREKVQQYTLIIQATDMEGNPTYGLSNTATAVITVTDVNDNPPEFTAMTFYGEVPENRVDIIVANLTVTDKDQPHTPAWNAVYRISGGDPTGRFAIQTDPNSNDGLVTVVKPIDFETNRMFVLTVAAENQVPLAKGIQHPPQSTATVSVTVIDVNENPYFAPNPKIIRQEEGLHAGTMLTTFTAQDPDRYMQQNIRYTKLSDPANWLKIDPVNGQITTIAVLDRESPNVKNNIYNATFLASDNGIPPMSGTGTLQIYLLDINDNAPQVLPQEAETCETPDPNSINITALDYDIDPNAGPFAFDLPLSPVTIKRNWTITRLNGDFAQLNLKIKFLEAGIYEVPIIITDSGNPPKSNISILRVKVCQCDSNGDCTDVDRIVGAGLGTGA
Method: (§1) To assess specificity of binding to P-cadherin vs E-cadherin and N-cadherin, Maxisorp 384-well plates were o/n at 4° C. with recombinant human E-cadherin or N-cadherin ECD and Fab fragments were assayed using an enzyme-linked immunosorbent assay (ELISA) format. After washing, plates were blocked for 2 h with 5% skim milk in 1×PBST. Fab-containing E. coli lysates were added and binding allowed for 1 h at room temperature (RT). To detect bound Fab fragments, plates were washed 5× with TBST and AP-anti human IgG F(ab′)₂ was added in a 1/2500 dilution. After 1 h at RT, plates were washed 5× with TBST and AttoPhos substrate was added according to the manufacturers specifications. Plates were read in an ELISA reader 5 minutes after adding the substrate.

[2] = molecular target: T2, recombinant human E-cadherin ECD (human, UniProt P12830 155-709); assay: as above
T2 construct: extracellular domain; also called E-cadherin (CDH1)
T2 sequence (looked up): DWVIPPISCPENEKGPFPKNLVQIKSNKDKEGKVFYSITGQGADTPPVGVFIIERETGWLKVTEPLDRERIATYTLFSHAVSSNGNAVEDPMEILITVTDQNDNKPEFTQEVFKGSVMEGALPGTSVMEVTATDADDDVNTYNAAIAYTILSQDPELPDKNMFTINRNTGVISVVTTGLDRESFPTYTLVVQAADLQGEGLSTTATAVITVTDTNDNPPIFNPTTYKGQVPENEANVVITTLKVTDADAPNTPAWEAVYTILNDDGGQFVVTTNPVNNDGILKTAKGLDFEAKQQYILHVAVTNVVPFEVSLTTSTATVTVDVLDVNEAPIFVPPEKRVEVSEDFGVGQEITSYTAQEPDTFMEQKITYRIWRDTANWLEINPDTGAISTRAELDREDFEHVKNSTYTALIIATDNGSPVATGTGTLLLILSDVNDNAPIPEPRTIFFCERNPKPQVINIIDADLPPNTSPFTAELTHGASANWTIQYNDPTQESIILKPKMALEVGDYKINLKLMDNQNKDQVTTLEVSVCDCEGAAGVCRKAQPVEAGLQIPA
Method: as §1

binding result [1]: no binding
binding result [2]: no binding
B1: NOV169N31Q Fab (Fab, V domains shown)
VH: QVQLQQSGPGLVKPSQTLSLTCAISGDSVSSQSAAWNWIRQSPSRGLEWLGRIYYRSKWYNDYALSVKSRITINPDTSKNQFSLQLNSVTPEDTAVYYCARGEGYGREGFAIWGQGTLVTVSS
VL: DIQMTQSPSSLSASVGDRVTITCRASQTISNTLAWYQQKPGKAPKLLIYAASNLQSGVPSRFSGSGSGTDFTLTISSLQPEDFATYYCQQYLSWFTFGQGTKVEIKR
notes: Expressed in E. coli; also called Fab fragment of NOV169N31Q
